Key:
Assay in all cases: cell-based or functional assay
protein A-tagged Nem1 8A = biological target: T1, protein A-tagged Nem1 8A (S. cerevisiae, UniProt P38757 1-446, L414 A | L415 A | L417 A | L418 A | L421 A | V430 A | L434 A | L436 A)
T1 sequence (looked up): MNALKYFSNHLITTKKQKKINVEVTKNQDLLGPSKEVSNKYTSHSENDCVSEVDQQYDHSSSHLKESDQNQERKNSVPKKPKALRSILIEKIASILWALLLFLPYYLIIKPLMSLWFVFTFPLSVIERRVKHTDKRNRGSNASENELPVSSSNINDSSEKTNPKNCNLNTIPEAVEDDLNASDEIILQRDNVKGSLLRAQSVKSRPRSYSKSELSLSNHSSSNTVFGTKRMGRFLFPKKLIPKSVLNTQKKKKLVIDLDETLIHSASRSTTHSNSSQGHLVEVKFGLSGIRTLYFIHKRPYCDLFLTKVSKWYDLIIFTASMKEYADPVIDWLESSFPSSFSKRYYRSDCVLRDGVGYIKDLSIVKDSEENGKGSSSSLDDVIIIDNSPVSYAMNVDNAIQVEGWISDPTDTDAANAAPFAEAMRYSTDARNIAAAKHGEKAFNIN

protein A-tagged Nem1 8R = biological target: T2, protein A-tagged Nem1 8R (S. cerevisiae, UniProt P38757 1-446, L414 R | L415 R | L417 R | L418 R | L421 R | V430 R | L434 R | L436 R)
T2 sequence (looked up): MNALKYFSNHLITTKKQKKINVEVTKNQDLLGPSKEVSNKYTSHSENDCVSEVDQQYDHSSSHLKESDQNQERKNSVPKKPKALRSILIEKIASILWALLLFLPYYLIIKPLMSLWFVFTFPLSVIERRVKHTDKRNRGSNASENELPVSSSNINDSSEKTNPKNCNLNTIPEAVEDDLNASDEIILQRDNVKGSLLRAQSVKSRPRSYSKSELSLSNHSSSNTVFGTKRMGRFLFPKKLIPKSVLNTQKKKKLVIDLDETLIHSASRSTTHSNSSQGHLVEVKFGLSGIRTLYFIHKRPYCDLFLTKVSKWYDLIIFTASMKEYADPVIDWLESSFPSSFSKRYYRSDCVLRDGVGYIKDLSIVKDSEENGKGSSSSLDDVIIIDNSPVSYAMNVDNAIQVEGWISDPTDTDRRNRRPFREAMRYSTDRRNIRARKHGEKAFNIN

[1] = biological target: T3, protein A-tagged Nem1 Δ(414–446) (S. cerevisiae, UniProt P38757 1-413)
T3 sequence (looked up): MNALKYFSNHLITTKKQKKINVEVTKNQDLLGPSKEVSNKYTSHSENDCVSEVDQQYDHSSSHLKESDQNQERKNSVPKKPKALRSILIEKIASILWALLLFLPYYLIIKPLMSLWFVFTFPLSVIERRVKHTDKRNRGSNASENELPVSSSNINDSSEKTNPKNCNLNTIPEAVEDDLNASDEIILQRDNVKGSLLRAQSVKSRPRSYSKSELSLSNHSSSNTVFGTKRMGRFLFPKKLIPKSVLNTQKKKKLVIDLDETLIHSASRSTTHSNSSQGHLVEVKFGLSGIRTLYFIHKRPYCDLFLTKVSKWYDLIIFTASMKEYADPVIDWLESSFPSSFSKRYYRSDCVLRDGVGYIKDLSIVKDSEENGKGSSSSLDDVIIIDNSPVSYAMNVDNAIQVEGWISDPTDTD

Measured: share of purified phosphorylated Pah1 found in the pellet of membranes containing the Nem1-PtA variant and Spo7 after centrifugation at 100,000g (translocation of Pah1 to membranes)

B1: Spo7 (natural protein, S. cerevisiae, UniProt P18410 1-259, looked up)
chain: MEPESIGDVGNHAQDDSASIVSGPRRRSTSKTSSAKNIRNSSNISPASMIFRNLLILEDDLRRQAHEQKILKWQFTLFLASMAGVGAFTFYELYFTSDYVKGLHRVILQFTLSFISITVVLFHISGQYRRTIVIPRRFFTSTNKGIRQFNVKLVKVQSTWDEKYTDSVRFVSRTIAYCNIYCLKKFLWLKDDNAIVKFWKSVTIQSQPRIGAVDVKLVLNPRAFSAEIREGWEIYRDEFWAREGARRRKQAHELRPKSE
≤ 20%: all assays above

From article PMC11665475, “The CTR hydrophobic residues of Nem1 catalytic subunit are required to form a protein phosphatase complex with Spo7 to activate yeast Pah1 PA phosphatase” (The Journal of Biological Chemistry, 2024)
